Experimental data: PMC3001329 (Investigative ophthalmology & visual science, 2009)

Target: the molecule itself
Experiment: SEC-MALS

B1: recombinant bovine αA-crystallin Y118D mutant (natural protein)
chain: MDIAIQHPWFKRTLGPFYPSRLFDQFFGEGLFEYDLLPFLSSTISPYYRQSLFRTVLDSGISEVRSDRDKFVIFLDVKHFSPEDLTVKVQEDFVEIHGKHNERQDDHGYISREFHRRDRLPSNVDQSALSCSLSADGMLTFSGPKIPSGVDAGHSERAIPVSREEKPSSAPSS
**Q.** For B1, which “stoichiometry N” value is on record?
**A.** Its value is 75 subunits.
